Measurements: the supplement of paper PMC11246515
± gives the standard deviation of the averaged measurements.

Experiment: total protein half-life in vivo (active degradation + dilution); higher = more stable protein
[1] = E. coli NCM3722 delta-clpP delta-lon delta-hslV, growth: N-lim chemostat, doubling time 6 h
[2] = E. coli NCM3722 delta-clpP, growth: N-lim chemostat, doubling time 6 h
[3] = E. coli NCM3722 delta-hslV, growth: N-lim chemostat, doubling time 6 h
[4] = E. coli NCM3722 delta-lon, growth: N-lim chemostat, doubling time 6 h
[5] = E. coli NCM3722 delta-smpB, growth: N-lim chemostat, doubling time 6 h
[6] = wild type E. coli NCM3722, growth: C-lim chemostat, doubling time 3 h
[7] = wild type E. coli NCM3722, growth: C-lim chemostat, doubling time 6 h
[8] = wild type E. coli NCM3722, growth: C-lim chemostat, doubling time 12 h
[9] = wild type E. coli NCM3722, growth: N-lim chemostat, doubling time 6 h
[10] = wild type E. coli NCM3722, growth: N-lim chemostat, doubling time 12 h
[11] = wild type E. coli NCM3722, growth: P-lim chemostat, doubling time 6 h
[12] = wild type E. coli NCM3722, growth: P-lim chemostat, doubling time 12 h

Sequence	total protein half-life in vivo [1]	total protein half-life in vivo [2]	total protein half-life in vivo [3]	total protein half-life in vivo [4]	total protein half-life in vivo [5]	total protein half-life in vivo [6]	total protein half-life in vivo [7]	total protein half-life in vivo [8]	total protein half-life in vivo [9]	total protein half-life in vivo [10]	total protein half-life in vivo [11]	total protein half-life in vivo [12]
MTQPLVGKQILIVEDEQVFRSLLDSWFSSLGATTVLAADGVDALELLGGFTPDLMICDIAMPRMNGLKLLEHIRNRGDQTPVLVISATENMADIAKALRLGVEDVLLKPVKDLNRLREMVFACLYPSMFNSRVEEEERLFRDWDAMVDNPAAAAKLLQELQPPVQQVISHCRVNYRQLVAADKPGLVLDIAALSENDLAFYCLDVTRAGHNGVLAALLLRALFNGLLQEQLAHQNQRLPELGALLKQVNHLLRQANLPGQFPLLVGYYHRELKNLILVSAGLNATLNTGEHQVQISNGVPLGTLGNAYLNQLSQRCDAWQCQIWGTGGRLRLMLSAE [P0AEV1]	3.97 ± 0.57 h	3.09 ± 0.13 h	3.094 ± 0.028 h	3.57 ± 0.32 h	2.961 ± 0.028 h	2.72 ± 0.33 h	4.34 ± 0.48 h	8.52 ± 0.76 h	3.39 ± 0.12 h	5.16 ± 0.3 h	5.53 ± 0.37 h	10.1 ± 0.53 h
MVDSKKRPGKDLDRIDRNILNELQKDGRISNVELSKRVGLSPTPCLERVRRLERQGFIQGYTALLNPHYLDASLLVFVEITLNRGAPDVFEQFNTAVQKLEEIQECHLVSGDFDYLLKTRVPDMSAYRKLLGETLLRLPGVNDTRTYVVMEEVKQSNRLVIKTR [P0ACJ0]	6.5 ± 0.13 h	6.63 ± 0.76 h	6.65 ± 0.079 h	7.54 ± 0.57 h	6.08 ± 0.29 h	3.27 ± 0.28 h	6.23 ± 0.33 h	10.8 ± 0.19 h	5.82 ± 0.65 h	12 ± 0.67 h	5.73 ± 0.45 h	14 ± 0.69 h
MEWSLTQNKLLAFHRLMRTDKPIGALLLLWPTLWALWVATPGVPQLWILAVFVAGVWLMRAAGCVVNDYADRKFDGHVKRTANRPLPSGAVTEKEARALFVVLVLISFLLVLTLNTMTILLSIAALALAWVYPFMKRYTHLPQVVLGAAFGWSIPMAFAAVSESVPLSCWLMFLANILWAVAYDTQYAMVDRDDDVKIGIKSTAILFGQYDKLIIGILQIGVLALMAIIGELNGLGWGYYWSILVAGALFVYQQKLIANREREACFKAFMNNNYVGLVLFLGLAMSYWHF [P0AGK1]	1.5 ± 0.18 h	1.13 h	1.29 h	0.759 h	1.45 ± 0.17 h	1.27 ± 0.027 h	1.92 ± 0.27 h	2.32 ± 0.41 h	1.29 ± 0.2 h		2.18 ± 0.52 h	2.85 h
MPIHDKSPRPQEFAAVDLGSNSFHMVIARVVDGAMQIIGRLKQRVHLADGLGPDNMLSEEAMTRGLNCLSLFAERLQGFSPASVCIVGTHTLRQALNATDFLKRAEKVIPYPIEIISGNEEARLIFMGVEHTQPEKGRKLVIDIGGGSTELVIGENFEPILVESRRMGCVSFAQLYFPGGVINKENFQRARMAAAQKLETLTWQFRIQGWNVAMGASGTIKAAHEVLMEMGEKDGIITPERLEKLVKEVLRHRNFASLSLPGLSEERKTVFVPGLAILCGVFDALAIRELRLSDGALREGVLYEMEGRFRHQDVRSRTASSLANQYHIDSEQARRVLDTTMQMYEQWREQQPKLAHPQLEALLRWAAMLHEVGLNINHSGLHRHSAYILQNSDLPGFNQEQQLMMATLVRYHRKAIKLDDLPRFTLFKKKQFLPLIQLLRLGVLLNNQRQATTTPPTLTLITDDSHWTLRFPHDWFSQNALVLLDLEKEQEYWEGVAGWRLKIEEESTPEIAA [P0AFL6]	5.76 ± 0.2 h	5.22 ± 0.12 h	3.78 ± 0.22 h	3.95 ± 0.21 h	3.68 ± 0.057 h	2.45 ± 0.086 h	4.69 ± 0.06 h	6.58 ± 0.48 h	3.83 ± 0.3 h	5.86 ± 0.01 h	3.96 ± 0.56 h	6.77 ± 0.37 h
MTNYRVESSSGRAARKMRLALMGPAFIAAIGYIDPGNFATNIQAGASFGYQLLWVVVWANLMAMLIQILSAKLGIATGKNLAEQIRDHYPRPVVWFYWVQAEIIAMATDLAEFIGAAIGFKLILGVSLLQGAVLTGIATFLILMLQRRGQKPLEKVIGGLLLFVAAAYIVELIFSQPNLAQLGKGMVIPSLPTSEAVFLAAGVLGATIMPHVIYLHSSLTQHLHGGSRQQRYSATKWDVAIAMTIAGFVNLAMMATAAAAFHFSGHTGVADLDEAYLTLQPLLSHAAATVFGLSLVAAGLSSTVVGTLAGQVVMQGFIRFHIPLWVRRTVTMLPSFIVILMGLDPTRILVMSQVLLSFGIALALVPLLIFTSDSKLMGDLVNSKRVKQTGWVIVVLVVALNIWLLVGTALGL [P0A769]	2.46 h	3.02 h	2.87 h		2.15 ± 0.48 h	1.29 h		3.66 h	2.23 ± 1.2 h	3.65 ± 1.2 h	2.19 h	
MKNVGFIGWRGMVGSVLMQRMVEERDFDAIRPVFFSTSQLGQAAPSFGGTTGTLQDAFDLEALKALDIIVTCQGGDYTNEIYPKLRESGWQGYWIDAASSLRMKDDAIIILDPVNQDVITDGLNNGIRTFVGGNCTVSLMLMSLGGLFANDLVDWVSVATYQAASGGGARHMRELLTQMGHLYGHVADELATPSSAILDIERKVTTLTRSGELPVDNFGVPLAGSLIPWIDKQLDNGQSREEWKGQAETNKILNTSSVIPVDGLCVRVGALRCHSQAFTIKLKKDVSIPTVEELLAAHNPWAKVVPNDREITMRELTPAAVTGTLTTPVGRLRKLNMGPEFLSAFTVGDQLLWGAAEPLRRMLRQLA [P0A9Q9]	4.6 ± 1.1 h	3.96 ± 0.59 h	3.75 ± 0.11 h	4.54 ± 0.57 h	3.49 ± 0.27 h	2.97 ± 0.19 h	5.55 ± 0.092 h	9.4 ± 0.89 h	3.76 ± 0.22 h	5.831 ± 0.054 h	5.76 ± 0.3 h	11 ± 1.3 h
MTTPLKKIVIVGGGAGGLEMATQLGHKLGRKKKAKITLVDRNHSHLWKPLLHEVATGSLDEGVDALSYLAHARNHGFQFQLGSVIDIDREAKTITIAELRDEKGELLVPERKIAYDTLVMALGSTSNDFNTPGVKENCIFLDNPHQARRFHQEMLNLFLKYSANLGANGKVNIAIVGGGATGVELSAELHNAVKQLHSYGYKGLTNEALNVTLVEAGERILPALPPRISAAAHNELTKLGVRVLTQTMVTSADEGGLHTKDGEYIEADLMVWAAGIKAPDFLKDIGGLETNRINQLVVEPTLQTTRDPDIYAIGDCASCPRPEGGFVPPRAQAAHQMATCAMNNILAQMNGKPLKNYQYKDHGSLVSLSNFSTVGSLMGNLTRGSMMIEGRIARFVYISLYRMHQIALHGYFKTGLMMLVGSINRVIRPRLKLH	6.51 ± 0.53 h	6.87 ± 1.2 h	6.08 ± 0.085 h	6.332 ± 0.062 h	5.82 ± 0.36 h	3.15 ± 0.057 h		11.78 ± 0.097 h	6.12 ± 0.28 h	12.7 ± 0.44 h	6.07 ± 0.096 h	14.2 ± 0.38 h
MSIKQMPGRVLISLLLSVTGLLSGCASHNENASLLAKKQAQNISQNLPIKSAGYTLVLAQSSGTTVKMTIISEAGTQTTQTPDAFLTSYQRQMCADPTVKLMITEGINYSITINDTRTGNQYQRKLDRTTCGIVKA									> 8 h		3.91 ± 0.68 h	7.3 ± 0.4 h
MSTVTITDLARENVRNLTPYQSARRLGGNGDVWLNANEYPTAVEFQLTQQTLNRYPECQPKAVIENYAQYAGVKPEQVLVSRGADEGIELLIRAFCEPGKDAILYCPPTYGMYSVSAETIGVECRTVPTLDNWQLDLQGISDKLDGVKVVYVCSPNNPTGQLINPQDFRTLLELTRGKAIVVADEAYIEFCPQASLAGWLAEYPHLAILRTLSKAFALAGLRCGFTLANEEVINLLMKVIAPYPLSTPVADIAAQALSPQGIVAMRERVAQIIAEREYLIAALKEIPCVEQVFDSETNYILARFKASSAVFKSLWDQGIILRDQNKQPSLSGCLRITVGTREESQRVIDALRAEQV	3.92 ± 0.55 h	3.15 ± 0.066 h	3.41 ± 0.045 h	3.73 ± 0.54 h	3.535 ± 0.032 h	3.02 ± 0.27 h	5.38 ± 0.12 h	9.87 ± 1.3 h	3.247 ± 0.012 h	4.98 ± 0.15 h	5.32 ± 0.39 h	10.9 ± 0.23 h
MYEFDWSSIVPSLPYLLDGLVITLKITVTAVVIGILWGTMLAVMRLSSFAPVAWFAKAYVNVFRSIPLVMVLLWFYLIVPGFLQNVLGLSPKNDIRLISAMVAFSMFEAAYYSEIIRAGIQSISRGQSSAALALGMTHWQSMKLIILPQAFRAMVPLLLTQGIVLFQDTSLVYVLSLADFFRTASTIGERDGTQVEMILFAGFVYFVISLSASLLVSYLKRRTA [P0AER5]	7.04 h	5.18 h	6.35 h	5.47 h	5.15 ± 0.1 h		6.05 ± 0.51 h	12.6 ± 1.8 h	5.68 ± 0.1 h	9.5 ± 4.4 h	6.36 ± 0.33 h	11.4 ± 0.52 h
MAQIFNFSSGPAMLPAEVLKQAQQELRDWNGLGTSVMEVSHRGKEFIQVAEEAEKDFRDLLNVPSNYKVLFCHGGGRGQFAAVPLNILGDKTTADYVDAGYWAASAIKEAKKYCTPNVFDAKVTVDGLRAVKPMREWQLSDNAAYMHYCPNETIDGIAIDETPDFGADVVVAADFSSTILSRPIDVSRYGVIYAGAQKNIGPAGLTIVIVREDLLGKANIACPSILDYSILNDNGSMFNTPPTFAWYLSGLVFKWLKANGGVAEMDKINQQKAELLYGVIDNSDFYRNDVAKANRSRMNVPFQLADSALDKLFLEESFAAGLHALKGHRVVGGMRASIYNAMPLEGVKALTDFMVEFERRHG	5.23 ± 1.6 h	3.87 ± 0.14 h	3.6976 ± 0.003 h	4.479 ± 0.022 h	3.55 ± 0.13 h	3.13 ± 0.2 h	5.71 ± 0.44 h	11.1 ± 2.7 h	3.83 ± 0.23 h	5.898 ± 0.048 h	5.74 ± 0.69 h	11.8 ± 0.42 h
MTDLSHSREKDKINPVVFYTSAGLILLFSLTTILFRDFSALWIGRTLDWVSKTFGWYYLLAATLYIVFVVCIACSRFGSVKLGPEQSKPEFSLLSWAAMLFAAGIGIDLMFFSVAEPVTQYMQPPEGAGQTIEAARQAMVWTLFHYGLTGWSMYALMGMALGYFSYRYNLPLTIRSALYPIFGKRINGPIGHSVDIAAVIGTIFGIATTLGIGVVQLNYGLSVLFDIPDSMAAKAALIALSVIIATISVTSGVDKGIRVLSELNVALALGLILFVLFMGDTSFLLNALVLNVGDYVNRFMGMTLNSFAFDRPVEWMNNWTLFFWAWWVAWSPFVGLFLARISRGRTIRQFVLGTLIIPFTFTLLWLSVFGNSALYEIIHGGAAFAEEAMVHPERGFYSLLAQYPAFTFSASVATITGLLFYVTSADSGALVLGNFTSQLKDINSDAPGWLRVFWSVAIGLLTLGMLMTNGISALQNTTVIMGLPFSFVIFFVMAGLYKSLKVEDYRRESANRDTAPRPLGLQDRLSWKKRLSRLMNYPGTRYTKQMMETVCYPAMEEVAQELRLRGAYVELKSLPPEEGQQLGHLDLLVHMGEEQNFVYQIWPQQYSVPGFTYRARSGKSTYYRLETFLLEGSQGNDLMDYSKEQVITDILDQYERHLNFIHLHREAPGHSVMFPDA [P0ABC9]	6.17 ± 0.24 h	7.418 ± 0.034 h	5.75 ± 1.3 h	> 8 h	5.11 ± 0.14 h		5.56 h	11.6 ± 2 h	6.17 h	9.97 h	6.22 ± 1.3 h	13.1 ± 1.3 h
MALHDENVVWHSHPVTVQQRELHHGHRGVVLWFTGLSGSGKSTVAGALEEALHKLGVSTYLLDGDNVRHGLCSDLGFSDADRKENIRRVGEVANLMVEAGLVVLTAFISPHRAERQMVRERVGEGRFIEVFVDTPLAICEARDPKGLYKKARAGELRNFTGIDSVYEAPESAEIHLNGEQLVTNLVQQLLDLLRQNDIIRS [P0A6J1]	4.97 ± 0.48 h	3.79 ± 0.44 h	2.03 ± 0.21 h	2.4 ± 0.82 h	1.72 ± 0.06 h	1.86 ± 0.13 h	4.8 ± 3 h		2.41 h	2.47 h	2.07 h	3.52 ± 0.087 h
